Experimental data published in article PMC3605045, “GH1-family 6-P-β-glucosidases from human microbiome lactic acid bacteria” (Acta Crystallographica Section D: Biological Crystallography, 2013).

Target: 6-P-β-glucosidase from Lactobacillus plantarum WCFS1 (LpPgb1) (Lactobacillus plantarum WCFS1)
Assay: SEC; Superdex 200 16/60, 20 mM HEPES-NaOH pH 8.0, 250 mM NaCl, 2 mM DTT, proteins ~3 mg/ml, 1 ml/min, calibrated with ferritin, aldolase, conalbumin and ovalbumin; oligomeric state from the elution volume

stoichiometry N: 2
Substance: 6-P-β-glucosidase from Lactobacillus plantarum WCFS1 (LpPgb1) (enzyme)
